Data as given in patent CN113501874A (SANGON BIOTECH SHANGHAI CO LTD, dated 2021).

Target: T1, 重组人CD47带his标签的蛋白 (human, UniProt Q08722 19-139, limits assumed)
T1 construct: Immunogen and ELISA coating antigen; also called 重组人CD47 his标签蛋白; 检测抗原; not shown: his tag
Assay: indirect ELISA; CD47-his coated at 3, 1.5, 0.75 and 0.375 mg/L; K=(N-1)/(N*AB'-AB), mean of 6 K values

T1 sequence (Q08722 19-139 limits assumed): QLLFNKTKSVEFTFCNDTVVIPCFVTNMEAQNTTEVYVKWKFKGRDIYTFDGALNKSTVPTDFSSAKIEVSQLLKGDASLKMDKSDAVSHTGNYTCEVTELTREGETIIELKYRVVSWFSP

Ka: 1.39e+08 M⁻¹
B1: 单克隆细胞株7G7分泌的鼠抗人CD47单克隆抗体 (antibody, V domains shown)
VH: VKLQQSGAELARPGASVKLSCTASGYTFTDYYINWVRQRTGQGLEWIGDINPGRGKTYYIEKFKGKATLTADKSSSTAYMQLSSLTSEDSAVYFCARGGLRRFDYWGQGTTVTVSS
VL: DIELTQSPAIMSVSPGEKVTMTCRASSSVSSSYLHWYQQKSGVSPKLWIYSTSTLASGVPARFSGSGSGTSYSLTISSVEAADAATYYCQQYSGYPYTFGGGTKVEIKR
